A word on the Kd: it is the concentration at which binding is half-saturated. Low readings indicate higher affinity, high ones lower affinity.

Assay in all cases: SPR steady state
The target of assay [1] is T1, His-tagged human FcyRIIB (human, UniProt P31994 46-217).
T1 chain: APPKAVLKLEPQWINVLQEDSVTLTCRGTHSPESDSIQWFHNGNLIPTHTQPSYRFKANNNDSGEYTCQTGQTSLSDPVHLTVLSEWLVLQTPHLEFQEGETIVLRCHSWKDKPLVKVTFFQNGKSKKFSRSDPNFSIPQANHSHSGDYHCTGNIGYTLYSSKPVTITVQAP

The target of assay [2] is His-tagged human FcyRIIIA (human, UniProt P08637 17-208).
The target in assay [3] is T2, His-tagged human FcyRIIA (human, UniProt P12318 36-218).
T2 chain: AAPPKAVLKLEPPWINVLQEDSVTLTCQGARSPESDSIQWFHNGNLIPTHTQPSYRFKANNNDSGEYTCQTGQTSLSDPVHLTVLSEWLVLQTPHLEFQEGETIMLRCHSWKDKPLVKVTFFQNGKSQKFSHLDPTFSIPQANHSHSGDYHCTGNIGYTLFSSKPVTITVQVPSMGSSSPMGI

Chain of His-tagged human FcyRIIIA (P08637 17-208): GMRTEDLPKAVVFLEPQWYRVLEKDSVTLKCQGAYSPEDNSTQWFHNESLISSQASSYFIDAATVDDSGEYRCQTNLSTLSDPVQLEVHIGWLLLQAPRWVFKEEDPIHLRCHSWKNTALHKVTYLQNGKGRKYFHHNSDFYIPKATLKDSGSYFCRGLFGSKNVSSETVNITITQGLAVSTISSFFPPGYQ

B1: Control Antibody A (Lot- L2), 9F7_VH_IgG4 (antibody)
constant: ASTKGPSVFPLAPCSRSTSESTAALGCLVKDYFPEPVTVSWNSGALTSGVHTFPAVLQSSGLYSLSSVVTVPSSSLGTKTYTCNVDHKPSNTKVDKRVESKYGPPCPSCPAPEFLGGPSVFLFPPKPKDTLMISRTPEVTCVVVDVSQEDPEVQFNWYVDGVEVHNAKTKPREEQFNSTYRVVSVLTVLHQDWLNGKEYKCKVSNKGLPSSIEKTISKAKGQPREPQVYTLPPSQEEMTKNQVSLTCLVKGFYPSDIAVEWESNGQPENNYKTTPPVLDSDGSFFLYSRLTVDKSRWQEGNVFSCSVMHEALHNRFTQKSLSLSLGK
Consider B1, for which the values for the dissociation constant (Kd) in assay [1], in assay [2] and in assay [3] were 2.2 µM, 140 µM and 16.8 µM, respectively.

Values taken from patent US20230287117A1 (published 2023).
